Columns and labels:
[1] = target: T1, SARS-COV-2 RBD extracellular domain expressed with a C-terminal mouse IgG2a Fc (SARS-CoV-2); test: Biacore SPR, mAb captured on anti-hFc, 25 C
[2] = target: T1, SARS-COV-2 RBD extracellular domain …; test: Biacore SPR, mAb captured on anti-hFc, 37 C

B1: mAb14257 (antibody, V domains shown)
VH: EVQLVESGGGLVQPGGSLRLSCAASGFTVSRSYMNWVRQAPGKGLEWVSVVFTGGTTKHTDSVKGRFTISRDNSMNTLYLQMNSLRPEDTAVYYCARVAIVETTGAFDIWGQGTMVTVSS
VL: QSVLTQPPSVSGAPGQRVTISCTGTSSNIGADFDVHWYQQFPGTAPKLLIYGHTNRPSGIPDRFSGSKSGTSASLAITGLQAEDEADYYCQSYDSSLSGSVVFGGGTKLTVLG
Kd [1]: 0.0907 nM
koff [1]: 0.000254 s⁻¹
kon [1]: 2.81e+06 M⁻¹ s⁻¹
t½ [1]: 45.4 min
Kd [2]: 0.121 nM
koff [2]: 0.000339 s⁻¹
kon [2]: 2.81e+06 M⁻¹ s⁻¹
t½ [2]: 34.1 min

B2: mAb14255 (antibody, V domains shown)
VH: QVQLQESGPGLVKPSETLSLTCTVSGGSISGYYWSWIRQPPGKGLDWIGYIYYRGNTNYNPSLKSRVTISVDTSNNQFSLKLSSVTAADTAVYYCARYGEGYGDASGYHFDYWGQGTLVTVSS
VL: QSALTQPASVSGSPGQSITISCTGTSSDVGSYNLVSWYQQHPGKAPKLMIYEDSKRPSGVANPFSGSKSGNTASLTISGLQAEDEADYYCSSYAGSSTWVFGGGTKLTVLG
Kd [1]: 0.0726 nM
koff [1]: 0.000159 s⁻¹
kon [1]: 2.19e+06 M⁻¹ s⁻¹
t½ [1]: 72.6 min
Kd [2]: 0.118 nM
koff [2]: 0.00025 s⁻¹
kon [2]: 2.12e+06 M⁻¹ s⁻¹
t½ [2]: 46.2 min

B3: mAb14286 (antibody, V domains shown)
VH: QVQLVQSGAEVKKPGASVKVSCKASGYTFTDYFIHWVRQAPGQGLEWMGWINPTSGGTNYAQKFRGRVTMTRDTSISTAYVELSRLRSDDTALYYCARDLPFYSDTKQFDYWGQGTLVTVSS
VL: QSALTQPASVSGYPGQSITISCTGTSSDVGGYNYVSWYQQHPGKAPKLMIFDVSNRPSGVSNRFSGSKSGNTASLTFSGLQAEDEADYYCSSYTSSSTLVFGGGTKLTVLG
Kd [1]: 0.222 nM
koff [1]: 0.000655 s⁻¹
kon [1]: 2.95e+06 M⁻¹ s⁻¹
t½ [1]: 17.6 min
Kd [2]: 0.18 nM
koff [2]: 0.000528 s⁻¹
kon [2]: 2.94e+06 M⁻¹ s⁻¹
t½ [2]: 21.9 min

B4: mAb14282 (antibody, V domains shown)
VH: QVQLVQSGAEVKKPGASVKVSCKASGYIFTDHYMHWVRQAPGQGLEWMGWINPNSGATNYAQNFQGRVTMTRDTSIITVYMELSRLRSDDTAVYYCARDSSPYMIRYTMDVWGQGTTITVSS
VL: QSALTQPASVSGSPGQSITISCTGTSSDVGSYNLVSWYQQHPGKAPKLMIYELTKRPSGVSNRFSGSKSGNTASLTISGLQAEDEADYYCSSYRGSVTDVVFGGGTKLTVLG
Kd [1]: 0.186 nM
koff [1]: 0.000403 s⁻¹
kon [1]: 2.17e+06 M⁻¹ s⁻¹
t½ [1]: 28.7 min
Kd [2]: 0.247 nM
koff [2]: 0.000546 s⁻¹
kon [2]: 2.21e+06 M⁻¹ s⁻¹
t½ [2]: 21.1 min

B5: mAb14281 (antibody, V domains shown)
VH: QVQLVQSGADVKKPGASVKVSCKTSGYIFTGYYIHWVRQAPGQGLEWMGWINPNSGGTNSAQKFQGRVTMTRDTSISTVYMELSRLRSDDTAVYYCAKSNSFSVLDYNFDYWGQGTLVTVSS
VL: SSELTQDPAVSVALGQTVRITCQGDSLRSYYASWYQQKPGQAPVLVIYDKNNRPSGIPDRFSGSSSGNTASLTITGAQAEDEADYYCNSRDSSRNHLVVFGGGTKLTVLG
Kd [1]: 0.146 nM
koff [1]: 0.000213 s⁻¹
kon [1]: 1.46e+06 M⁻¹ s⁻¹
t½ [1]: 54.3 min
Kd [2]: 0.271 nM
koff [2]: 0.000365 s⁻¹
kon [2]: 1.34e+06 M⁻¹ s⁻¹
t½ [2]: 31.7 min

B6: mAb14230 (antibody, V domains shown)
VH: EVQLVESGGGLIQPGRSLRLSCAASGFTFDDYAMHWVRQAPGKGLEWVSGISWNSVSIDYADSVKGRFTISRDNAKNSLYLQMTSLTVEDTALYYCAKAFGYETLTGSDYFAYWGPGTLVTVSS
VL: EIVLTQSPGTLSLSPGERATLSCRASQTVISTYLAWYQQKPGQSPRLLIYGASSRATGIPDRFSGSGSGTDFTLTISRLEPEDFAVYYCQQYGSSPQLTFGGGTKVEIKR
Kd [1]: 0.142 nM
koff [1]: 0.000286 s⁻¹
kon [1]: 2e+06 M⁻¹ s⁻¹
t½ [1]: 40.5 min
Kd [2]: 0.268 nM
koff [2]: 0.00049 s⁻¹
kon [2]: 1.82e+06 M⁻¹ s⁻¹
t½ [2]: 23.6 min

Source: patent US20260069689A1 (Regeneron, published 2026)
